Target: T1, His-ABI5 (Arabidopsis, UniProt Q9SJN0 1-442)
T1 construct: ABI5, Arabidopsis, AT2G36270; CDS ligated to pET28a; source: E. coli, purified (Ni-NTA agarose)
T1 sequence (looked up): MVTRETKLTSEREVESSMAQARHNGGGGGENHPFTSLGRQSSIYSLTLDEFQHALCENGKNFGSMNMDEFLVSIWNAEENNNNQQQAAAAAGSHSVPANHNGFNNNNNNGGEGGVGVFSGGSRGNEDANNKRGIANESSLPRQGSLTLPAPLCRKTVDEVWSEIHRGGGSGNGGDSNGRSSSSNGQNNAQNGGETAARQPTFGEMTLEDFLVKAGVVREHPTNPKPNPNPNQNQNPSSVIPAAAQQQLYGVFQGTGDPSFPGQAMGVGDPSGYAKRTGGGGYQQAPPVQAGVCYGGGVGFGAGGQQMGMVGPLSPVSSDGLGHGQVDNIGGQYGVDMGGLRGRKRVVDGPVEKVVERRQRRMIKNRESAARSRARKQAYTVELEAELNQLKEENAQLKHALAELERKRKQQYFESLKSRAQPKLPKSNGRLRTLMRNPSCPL
Test: pull-down; His-ABI5 purified with Ni-NTA agarose incubated with dialyzed MBP fused proteins 1h at 4°C; column buffer 20 mM Tris-HCl pH 7.4, 0.2 M NaCl, 1 mM EDTA; blots with anti-His and anti-MBP
Details: both partners purified

B1: MBP-ENAP1 (natural protein, Arabidopsis, UniProt Q8VZI9 1-249, looked up)
chain: METTPETQSKTHRLPAGREDWWSEDATATLIEAWGDRYVNLNRGNLRQNDWKEVADAVNSSHGNGRPKTDVQCKNRIDTLKKKYKTEKAKPLSNWCFFDRLDFLIGPVMKKSSGAVVKSALMNPNLNPTGSKSTGSSLDDDDDDDDDDEEDDDDAGDWGFVVRKHRKVEDVDSSEGSAFRELARSILKLGEAFERIEGKKQQMMIELEKQRMEVAKELELQRMNMLMEMQLELEKSKLGKRRAASGKKL
notes: ENAP1, Arabidopsis, At3G11100; CDS ligated to pVP13 (Gateway vector, His tag removed); source: E. coli, purified (amylose resin, eluted with maltose, dialyzed)
binding result: binds

From publication PMC8673607, “ENAP1 retrains seed germination via H3K9 acetylation mediated positive feedback regulation of ABI5” (PLoS Genetics, 2021)
